Numbering of substitutions follows the chain as printed.
B1: H4-PA31 humanized antibody (antibody, human IgG1, V domains shown)
VH: EVQLVESGGGLVQPGGSLRLSCAVSGRTFSRLPMGWFRQAPGKDREFVAAISWSSSTTYYADSVKGRFTISRDNSKNTAYLQMNSLRAEDTAVYYCAAVGGSLDYSATVVYTAARAYADWGQGTLVTVSS
notes: not shown: constant region of human IgG1
B2: H4-PA45 humanized antibody (antibody, V domains shown)
VH: EVQLVESGGGLVQPGGSLRLSCAASGRTFSRLPMAWFRQAPGKDREFVAAISWSGGSTYYADSMKGRFTISRDNSKNTAYLQMNSLRAEDTAVYYCAAVGDSAPYSATIVYTDARAYAYWGQGTLVTVSS
notes: as for B1
B3: H2-PA27 humanized antibody (antibody, human IgG1, V domains shown)
VH: QVQLVESGGGVVQPGRSLRLSCAASGRTESWYRMGWFRQAPGKGLEVVARISGDTNIKYYAGSVKGRFTISRDNSKNTLYLQMSSLRAEDTAVYYCAADRTGATWDYWGQGTLVTVSS
notes: as for B1
B4: H4-PA27 humanized antibody (antibody, human IgG1, V domains shown)
VH: B3 VH with Q1D, L45R
notes: as for B1
B5: H1-PA27 humanized antibody (antibody, human IgG1, V domains shown)
VH: B3 VH with F37V, V47W
notes: also called hPA27; not shown: constant region of human IgG1
B6: H3-PA27 humanized antibody (antibody, human IgG1, V domains shown)
VH: B3 VH with L45R
notes: as for B1
B7: H3-PA45 humanized antibody (antibody, V domains shown)
VH: B2 VH with D44G
notes: as for B1
B8: H3-PA31 humanized antibody (antibody, human IgG1, V domains shown)
VH: B1 VH with D44G
notes: as for B1
B9: H1-PA45 humanized antibody (antibody, human IgG1, V domains shown)
VH: B2 VH with F37V, D44G, R45L, F47W, A49S, A79L
notes: also called hPA45; not shown: constant region of human IgG1
B10: H1-PC11 humanized antibody (antibody, human IgG1, V domains shown)
VH: EVQLVESGGGLVQPGGSLRLSCAASPYSANSFSMAWFRQAPGKGLEGVACIQAESGSTNVAPSVKGRFTISQDNSKNTLYLQMNSLRAEDTAVYYCAAFKRNVGGCELRPEHWRFWGQGTLVTVSS
notes: as for B1
B11: H4-PC11 humanized antibody (antibody, human IgG1, V domains shown)
VH: B10 VH with A24P, L45R, V48I
notes: as for B1
B12: H5-PC11 humanized antibody (antibody, human IgG1, V domains shown)
VH: B10 VH with A24P, G44E, L45R, V48I
notes: as for B1
B13: H3-PC11 humanized antibody (antibody, human IgG1, V domains shown)
VH: B10 VH with L45R
notes: as for B1
B14: H2-PC11 humanized antibody (antibody, human IgG1, V domains shown)
VH: B10 VH with A24P, V48I
notes: as for B1

Legend:
[1] = biological target: T1, human NKp46 (full length, on cells) (human, UniProt O76036 22-304); test: cell-based or functional assay
T1 sequence (O76036 22-304 Q82K): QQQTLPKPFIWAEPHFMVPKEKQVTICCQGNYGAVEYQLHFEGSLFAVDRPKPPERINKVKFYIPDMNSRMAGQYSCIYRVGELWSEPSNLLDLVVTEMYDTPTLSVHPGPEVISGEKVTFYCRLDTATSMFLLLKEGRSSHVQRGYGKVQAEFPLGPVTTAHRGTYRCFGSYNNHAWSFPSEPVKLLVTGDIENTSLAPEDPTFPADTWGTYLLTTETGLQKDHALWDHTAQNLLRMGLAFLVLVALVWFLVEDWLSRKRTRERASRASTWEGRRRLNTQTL

[2] = biological target: T1, human NKp46 (full length, on cells); test: flow cytometry on human NKp46-CHOK1 cells
Experimental: (§1) The stable human NKp46-CHOK1 and cynomolgus monkey NKp46-CHOK1 cell lines obtained in Example 2 were cultured, the cells were digested with 0.25% pancreatic enzyme EDTA for about 5 minutes, and the digestion was terminated with the complete medium. After centrifugation at 1,500 rpm for 5 minutes, the supernatant was discarded, the precipitated cells were resuspended with PBS containing 1% BSA and counted. The cell density was adjusted to 1E6/mL and seeded in a corning-3799 96-well culture plate at 100 μL/well. Aftering centrifuging at 1,500 rpm for 5 minutes, the supernatant was discarded and the precipitate was set aside at 4° C. The antibody solutions were prepared with PBS containing 1% BSA, wherein the antibody solution has an initial concentration was 100 nM, then diluted in 10-fold to obtain 7 gradients: 10⁻⁴ nM, 10⁻³ nM, 10⁻² nM, 10⁻¹ nM, […], and 10² nM. The prepared antibody solutions were used to resuspend the cells, 100 μL/well. The resuspended cell culture plates were incubated in a 4° C. freezer for 1 h. After centrifugation at 1500 rpm for 5 minutes, the supernatant was discarded. The precipitate was washed with 160 μL of PBS containing 1% BSA, the supernatant was discarded, and the cells were stored for later use.
(§2) The Secondary antibody (goat anti human IgG Fc PE) solution was prepared with PBS containing 1% BSA, and diluted 1:200. The cells were resuspended with the prepared secondary antibody solution, 100 μL/well, incubated in a 4° C. freezer for 0.5 h. After centrifugation at 1,500 rpm for 5 minutes, the supernatant was discarded, the precipitated cells were washed with 160 μL of PBS containing 1% BSA, the supernatant was discarded, the cells were resuspended with 100 μL of PBS containing 1% BSA, and filtered in 300-mesh gauze. The mean fluorescence intensity of antibody binding to cells was then analyzed on a flow cytometer. The FCS file was exported from the flow cytometer, the mean fluorescence intensity (hereinafter referred to as MFI) of PE channel was analyzed with Flowjo software, and the mean fluorescence intensity obtained was introduced into the Graphpad to analyze the half binding concentration (hereinafter referred to as EC₅₀) and the top mean fluorescence intensity (Top MFI) of the antibody and the cell.

[3] = biological target: T2, cynomolgus monkey NKp46 (full length, on cells) (cynomolgus monkey, UniProt Q95JB9 22-306); test: flow cytometry on cynomolgus monkey NKp46-CHOK1 cells
T2 construct: also called cynomolgus monkey NKp46-CHOK1; cynomolgus NKp46-CHOK1
T2 sequence (Q95JB9 22-306): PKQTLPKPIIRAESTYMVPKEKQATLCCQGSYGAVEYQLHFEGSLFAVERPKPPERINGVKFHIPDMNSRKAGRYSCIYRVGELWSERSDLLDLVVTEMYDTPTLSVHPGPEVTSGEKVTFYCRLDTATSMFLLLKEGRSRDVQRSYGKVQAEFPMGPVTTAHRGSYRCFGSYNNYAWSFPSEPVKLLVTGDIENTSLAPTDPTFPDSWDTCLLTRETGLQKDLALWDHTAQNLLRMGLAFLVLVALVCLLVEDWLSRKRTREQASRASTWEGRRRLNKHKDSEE
Experimental: as §1, §2

[4] = biological target: T3, Human NKp46 antigen for immunization, screening, and testing (Kactus, NKP-HM146) (human, UniProt O76036 22-255); test: SPR (Biacore 8K), antibody captured on anti-human Fc, NKp46 as analyte, 1:1 fit
T3 construct: Bought protein; also called human NKp46 antigen protein; human NKp46 protein
T3 sequence (O76036 other isoform, or with tags, fused parts or gaps limits assumed): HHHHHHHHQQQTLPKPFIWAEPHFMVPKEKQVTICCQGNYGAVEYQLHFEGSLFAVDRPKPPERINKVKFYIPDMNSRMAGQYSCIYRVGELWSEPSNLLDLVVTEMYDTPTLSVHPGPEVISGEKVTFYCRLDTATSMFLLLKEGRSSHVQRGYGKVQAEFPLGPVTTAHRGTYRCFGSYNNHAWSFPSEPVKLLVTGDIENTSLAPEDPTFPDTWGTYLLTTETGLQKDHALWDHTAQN
Experimental: Human NKp46 was diluted in two-fold to a serial concentration (400 nM-3.125 nM), then combined for 90 s at a flow rate of 50 μL/min, and dissociated for 500 s.
(§3) At the end of each round of experiments, 3 M MgCl₂ solution was used to rinse at a flow rate of 30 μL/min for 30 s, and the captured antibody was removed along with the antigen to complete the regeneration of the chip. The raw data were analyzed using Biacore Insight Evaluation Software (version 3.0.12.15655) software and (1:1) Langmuir model was fit to the data. Compared with the anti-NKp46 humanized antibody and the corresponding chimeric antibody, the affinity to the human NKp46 antigen protein is mostly maintained.

[5] = biological target: T4, Cynomolgus monkey NKp46 for immunization, screening, and testing (Kactus, NKP-CM146) (cynomolgus monkey, UniProt Q95JB9 22-254); test: as above
T4 construct: Bought protein; also called monkey NKp46 antigen protein; cynomolgus monkey NKp46 antigen
T4 sequence (Q95JB9 other isoform, or with tags, fused parts or gaps limits assumed): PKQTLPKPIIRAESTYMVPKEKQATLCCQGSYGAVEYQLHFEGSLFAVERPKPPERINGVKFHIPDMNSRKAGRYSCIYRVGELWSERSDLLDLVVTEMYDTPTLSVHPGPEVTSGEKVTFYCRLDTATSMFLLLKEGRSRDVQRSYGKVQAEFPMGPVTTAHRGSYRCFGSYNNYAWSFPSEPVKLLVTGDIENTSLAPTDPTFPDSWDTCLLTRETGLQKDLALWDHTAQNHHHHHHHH
Experimental: Cynomolgus monkey NKp46 was diluted in two-fold to a serial concentration (400 nM-3.125 nM), combined for 90 s at a flow rate of 50 μL/min and dissociated for 500 s.
as §3

Binder	EC50 of NK cell activation (CD107a-positive NK cells, plate-coated antibody) [1]	Top mean fluorescence intensity (Top MFI), NK cell activation (CD107a) [1]	EC50 [2]	Top MFI [2]	EC50 [3]	Top MFI [3]	Kd [4]	koff [4]	kon [4]	Kd [5]	koff [5]	kon [5]
B1	0.38 nM	34.1	0.162 nM	5950	1.3 nM	3340	5.89 nM	0.00103 s⁻¹	175000 M⁻¹ s⁻¹			
B2	0.4 nM	37.6	0.205 nM	5760	1.53 nM	3400	21.9 nM	0.00204 s⁻¹	93000 M⁻¹ s⁻¹			
B3	> 20 nM	14.1	0.153 nM	6940	0.069 nM	3800	22.1 nM	0.00216 s⁻¹	97700 M⁻¹ s⁻¹	23.4 nM	0.0059 s⁻¹	252000 M⁻¹ s⁻¹
B4	10.7 nM	18.1	0.145 nM	6650	0.074 nM	3880	23.7 nM	0.00266 s⁻¹	112000 M⁻¹ s⁻¹			
B5	> 20 nM	6.3	0.253 nM	6000	0.338 nM	2540						
B6	7.39 nM	14.4	0.153 nM	6820	0.072 nM	4060						
B7	0.58 nM	34	0.188 nM	5720	1.52 nM	3330						
B8	0.75 nM	31.6	0.148 nM	5980	1.16 nM	3210						
B9	7.39 nM	30.8	0.543 nM	5090	11.1 nM	3120						
B10	0.85 nM	21	0.389 nM	6710	0.345 nM	3260	6.05 nM	0.000307 s⁻¹	50800 M⁻¹ s⁻¹	115 nM	0.00589 s⁻¹	51300 M⁻¹ s⁻¹
B11	1.84 nM	19.3	0.305 nM	7240	0.274 nM	3620						
B12	0.95 nM	23.6	0.302 nM	7370	0.27 nM	3660						
B13	1.21 nM	19.6	0.328 nM	6830	0.297 nM	3280	1.14 nM	7.75e-05 s⁻¹	67800 M⁻¹ s⁻¹			
B14	0.87 nM	18.8	0.363 nM	6940	0.301 nM	3540	2.05 nM	0.000126 s⁻¹	61300 M⁻¹ s⁻¹			
